The numbers were not newly measured in paper PMC6690345, which cites them from elsewhere.

A word on the Kd: it is the concentration at which binding is half-saturated.

The target of the series is integrin αIIbβ3 (Homo sapiens) (UniProt P08514). In words: SPR. (In general: SPR reads the build-up and loss of mass on a sensor chip optically.)

As to ERp5 (from UniProt Q15084), the Kd was 21 µM.

With PDI (from UniProt P07237), the Kd was 1 µM.
